Experiment [1] has as its target T1, epitope from MAGEA1 presented by HLA C*07:02 (Homo sapiens, UniProt P10321+P43355, DEL298-309).
T1 construct: an individual 90-amino acid fragments representing the top-scoring MAGEA1 tile from the screen; expressed in transfected cells; host or cells: MHC monoallelic C*07:02 HEK293T cells, lentivirally transduced with the MAGEA1 90-mer
The experiment is described as follows: Identification of MAGEA1-reactive TCRs from pool of TCR-transduced T cells (CD137/CD69 sorting, TCR sequencing). The experiment is classed as cell-based. Particulars: target cells transduced with MAGEA1 90-mer. The source says:
Ten orphan TCRs from this patient were pooled together to identify their cognate antigens using the genome-wide TargetScan technology. This screen identified MAGEA1 as a novel target. […] Note that the term “TCR32-39” may also be known as “TCR39” and the term “TCR32-41” may also be known as “TCR41”.
To identify the corresponding TCR from the pool of TCR-transduced T cells, Ml-IC monoallelic C*07:02 HEK293T cells engineered to express the MAGEA1 90mer were co-cultured with the pool of T cells at an E:T ratio of 1:1 for 16-24 hours. The T cells were mixed, collected by pipetting, and labeled with a CD137 microbead kit (Miltenyi) following the manufacturer's instructions. In brief, T cells were first stained with PE-labeled anti-CD137 and AF647-labeled anti-CD69 (BioLegend), washed, and then labeled with anti-PE microbeads. Labeled cells were enriched with an autoMACS® Pro separator (Miltenyi) and CD137 and CD69 double-positive cells were sorted on a MoFlo® Astrios™ Cell Sorter (Beckman Coulter). Genomic DNA was extracted from the sorted cells and the TCR expression cassette was PCR amplified and prepared for next generation sequencing (NGS).

Experiment [2] has as its system cancer cells that express MAGEA1. The experiment is described as follows: T cell recognition assay on cancer cell lines. The conditions noted are these: IFNγ release, CD137/CD69 double-positive staining. The format is cell-based, human. The method, then:
To detect reactivity to cancer cell lines, wild-type cancer cell lines were seeded in a 96-well flat bottom plate and rested overnight at 37° C. in 5% CO2. On the following day, T cells were thawed, washed in complete RPMI-1640 medium, and added to the wells for an effector to target (E:T) ratio of 1:1 for INFγ measurement or 1:4 for flow cytometry analysis of activation-induced markers. The co-culture was incubated overnight. Cells were then harvested by pipetting, transferred to V-bottom 96-well plates, and centrifuged at 2,000 rpm for 2 minutes. The supernatant was collected for IFNγ measurement using a human IFNγ 3rd generation single-plex assay (Protein Simple). For flow cytometry analysis (Cytoflex S™ instrument, Beckman Coulter), cell pellets were washed with FACS buffer (PBS, 0.5% BSA, 2 mM EDTA) and stained for activation-induced markers, including PE-conjugated anti-CD137 (Miltenyi), AF647-conjugated anti-CD69 (Biolegend), and BV421-conjugated anti-CD8 (BioLegend).
Cancer cell lines were purchased from ATCC (Manassas, Vα.) and HEK293T cells were originally from Takara Bio (Shiga, Japan). All media were supplemented with […], except U266B1 which required 15% FBS, and 1% penicillin and incubated at 37° C. in 5% CO2. A101D (high MAGE-A1 expresing cells; TPM: 359), A2058 (medium MAGE-A1 expresing cells; TPM: 128), HS294T, and HEK293T cells were maintained in complete DMEM. SK-MEL-5 was cultured in complete EMEM, whereas U266B1, NCIH1437 and 786-0 required complete RPMI. Untransduced cancer cells were maintained in preparation for the T cell recognition assay, and 10^6 cells of each cell line were introduced with Incucyte® NucLight™ Red lentivirus reagent (Sartorius, Gottingen, Germany) Positively-labeled cells were selected using 1.5 ug/mL of puromycin over 72 hours.

Data on 1 molecule can be found in patent publication US20230270832A1, “MAGEA1 IMMUNOGENIC PEPTIDES, BINDING PROTEINS RECOGNIZING MAGEA1 IMMUNOGENIC PEPTIDES, AND USES THEREOF” (TScan Therapeutics, Inc., priority 2021, published 2023).

B1: TCR 32-39: T cell receptor recognizing MAGEA1 epitope presented by HLA-C*07:02; alpha TRAV29-DV5/TRAJ43, beta TRBV18/TRBJ2-7; wild type, HM and MGTM sequences listed (protein)
TCR alpha: DQQVKQNSPSLSVQEGRISILNCDYTNSMFDYFLWYKKYPAEGPTFLISISSIKDKNEDGRFTVFLNKSAKHLSLHIVPSQPGDSAVYFCAASAQNNDMRFGAGTRLTVKPNIQNPEPAVYQLKDPRSQDSTLCLFTDFDSQINVPKTMESGTFITDKCVLDMKAMDSKSNGAIAWSNQTSFTCQDIFKETNATYPSSDVPCDATLTEKSFETDMNLNFQNLLVMVLRILLLKVAGFNLLMTLRLWSS
TCR beta: NAGVMQNPRHLVRRRGQEARLRCSPMKGHSHVYWYRQLPEEGLKFMVYLQKENIIDESGMPKERFSAEFPKEGPSILRIQQVVRGDSAAYFCASSPSYEQYFGPGTRLTVTEDLRNVTPPKVSLFEPSKAEIANKQKATLVCLARGFFPDHVELSWWVNGKEVHSGVCTDPQAYKESNYSYCLSSRLRVSATFWHNPRNHFRCQVQFHGLSEEDKWPEGSPKPVTQNISAEAWGRADCGITSASYQQGVLSATILYEILLGKATLYAVLVSTLVVMAMVKRKNS
With B1, the “recognition of MAGEA1 epitope / identification as MAGEA1-reactive TCR” value in experiment [1] (listed as HN-32-39) is “recognizing the same novel epitope from MAGEA1 presented by HLA C*07:02”; in experiment [1] (listed as TCR 39) it was “hits”. The “recognition of cancer cells” value in experiment [2] is on record as “recognize cancer cells that express MAGEA1”; in experiment [2] (listed as TCR 39), “recognize”.
